For test [1], the target named is T1, GST fusion protein containing human Mpl MG8 (Gln26 to Pro217) (human, UniProt P40238 26-217).
T1 construct: As MG1; not shown: glutathione-S-transferase of vector pGEX-4T-3 (Amersham Biosciences)
T1 sequence: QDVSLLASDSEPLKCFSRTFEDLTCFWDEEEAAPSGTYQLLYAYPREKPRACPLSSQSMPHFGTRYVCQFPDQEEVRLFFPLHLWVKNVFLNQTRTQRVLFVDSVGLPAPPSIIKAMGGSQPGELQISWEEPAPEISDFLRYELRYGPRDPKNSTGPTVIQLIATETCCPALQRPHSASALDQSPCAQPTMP
The test can be described thus: Western blotting of GST fusion protein. How it is done: (§1) Since the anti-human Mpl antibody VB22B can be used for Western blotting, a GST-fusion protein containing a partial sequence of human Mpl was constructed for VB22B epitope analysis. MG1 (Gln26 to Trp491) and MG2 (Gln26 to Leu274) regions were each amplified by PCR, and cloned into pGEX-4T-3 (Amersham Biosciences) to be expressed as GST fusion proteins. The resulting plasmid DNAs were transformed into DH5α to give transformants. A final concentration of 1 mM IPTG was added to the transformants in their logarithmic growth phase to induce the expression of GST fusion proteins. The bacterial cells were harvested after two hours of incubation. The cells were lysed by sonication. The lysates were centrifuged in XL-80 Ultracentrifuge (Beckman, Rotor 70.1Ti) at 35,000 rpm for 30 min. The culture supernatants were removed, and then the fusion proteins were purified using GST Purification Modules (Amersham Biosciences). The samples were separated by 10%-SDS-PAGE, and then transferred onto a PVDF membrane. The membrane was analyzed by the murine antibody VB22B in Western Btotting.
(§2) Then, GST fusion proteins containing the respective regions of human Mpl: MG3 (Gln26 to Ala189), MG4 (Gln26 to Pro106), MG5 (Gln26 to Glu259), and MG6 (Gln26 to Gly245) were prepared and analyzed by Western blotting using the same procedure described above. […] In addition, GST was fused with MG7 (Gln26 to Ala231) and MG8 (Gln26 to Pro217) to prepare GST fusion proteins.
A general note: A western blot detects proteins with antibodies after separation by electrophoresis.

Test [2] has as its target T2, GST fusion protein containing human Mpl MG3 (Gln26 to Ala189) (human, UniProt P40238 26-189).
T2 construct: As MG1; not shown: glutathione-S-transferase of vector pGEX-4T-3 (Amersham Biosciences)
T2 sequence: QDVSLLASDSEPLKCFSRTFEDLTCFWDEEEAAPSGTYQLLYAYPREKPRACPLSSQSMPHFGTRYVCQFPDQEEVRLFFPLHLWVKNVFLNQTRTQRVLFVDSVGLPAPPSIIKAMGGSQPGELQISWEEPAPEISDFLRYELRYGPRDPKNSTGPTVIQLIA
In words: Western blotting of GST fusion protein. As for the experimental part: as §1, §2

Test [3] concerns the target T3, GST fusion protein containing human Mpl MG4 (Gln26 to Pro106) (human, UniProt P40238 26-106).
T3 construct: As MG1; not shown: glutathione-S-transferase of vector pGEX-4T-3 (Amersham Biosciences)
T3 sequence: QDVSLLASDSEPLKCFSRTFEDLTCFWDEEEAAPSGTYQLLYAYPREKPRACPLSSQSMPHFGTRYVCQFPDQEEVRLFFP
The test can be described thus: Western blotting of GST fusion protein. As for the experimental part:
as §1, §2

Test [4] concerns the target T4, human Mpl-IgG Fc fusion protein (human, UniProt P40238 26-491).
T4 construct: Expressed in CHO-DG44 with a 19-residue signal peptide from a human IgG H chain variable region (left out); also called hMpl-Fc; hMPL-Fc; not shown: Fc region of human IgG-gamma1 (a region downstream of Asp 216)
T4 sequence: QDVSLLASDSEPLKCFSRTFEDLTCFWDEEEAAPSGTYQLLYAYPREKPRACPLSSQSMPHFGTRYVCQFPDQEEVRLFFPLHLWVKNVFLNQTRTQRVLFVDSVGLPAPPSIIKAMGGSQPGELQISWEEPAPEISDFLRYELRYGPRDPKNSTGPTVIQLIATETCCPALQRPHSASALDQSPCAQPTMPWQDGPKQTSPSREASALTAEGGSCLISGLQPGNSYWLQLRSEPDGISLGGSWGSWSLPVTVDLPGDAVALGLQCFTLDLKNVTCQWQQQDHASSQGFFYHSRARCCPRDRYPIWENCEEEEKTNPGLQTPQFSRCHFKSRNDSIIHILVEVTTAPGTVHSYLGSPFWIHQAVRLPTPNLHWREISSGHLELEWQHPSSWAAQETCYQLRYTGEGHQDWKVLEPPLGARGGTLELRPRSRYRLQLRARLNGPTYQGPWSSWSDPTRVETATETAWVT
The test can be described thus: SPR, Biacore 2000, human Mpl-IgG Fc immobilized on CM5 by amine coupling, 1.25 to 20 µg/mL VB22B IgG injected. As for the experimental part: Since the anti-human Mpl antibody VB22B binds to soluble recombinant Mpl, kinetic analyses of the antigen-antibody reaction between VB22B IgG and human Mpl-IgG Fc fusion protein were carried out as described in Example 1.4. The Sensor Chip CM5 (Biacore) was placed in Biacore 2000 (Biacore), and human Mpl-IgG Fc fusion protein was immobilized onto the chip by amine-coupling methods. Then, 1.25 to 20 μg/mL of VB22B IgG solution was prepared using HBS-EP Buffer (Biacore), and injected over the chip surface for 2 min to reveal the binding region. Then, HBS-EP Buffer was injected over the chip surface for 2 min to reveal the dissociation region. VB22B IgG bound to the human Mpl-IgG Fc fusion protein on the sensor chip was removed by injecting 10 mM NaOH over the sensor chip for 15 sec, and the chip was recovered. HBS-EP Buffer was used as the running buffer, and the flow rate was 20 μL/min. Using the BIAevaluation Version 3.1 (Biacore) software, the reaction rate constant at each concentration was calculated from the sensorgrams.

The values below come from patent US20060222643A1 (Chugai, published 2006).

B1: anti-human Mpl antibody VB22B IgG (antibody, V domains shown)
VH: QVQLQQSGPELVKPGASVKISCKASGYAFTNSWMNWVKQRPGKGLEWIGRIYPGDGETIYNGKFRVKATLTADKSSSTAYMDISSLTSEDSAVYFCARGYDDYSFAYWGQGTLVTVSA
VL: DIVMTQAAPSIPVTPGESVSISCRSSKSLLHSNGNTYLYWFLQRPGQSPQLLIYRMSNLASGVPDRFSGSGSGTAFTLRISRVEAEDVGVYYCMQHIEYPFTFGSGTKLEIK
notes: also called murine antibody VB22B
Broadly, the Kd is the equilibrium constant for the complex coming apart. Read a low Kd as higher affinity. With B1, the binding result in test [1], in test [2] and in test [3] was “no binding” in each case. Moreover, binding in test [4] was characterised by a dissociation constant (Kd) of 1.67 nM.
